Assay: soluble on expression in E. coli; label from the status in PepcDB or PDB records

GPGSMACLSRIDANLLQYYEKPEPNNTVDLYVSNNSNNNGLKEGDKSISTPVPQPYGSEYSNCLLLSNSEYICYHFSSRSTLLTFYPLSDAYHGKTINIHLPNASMNQRYTLTIQEVEQQLLVNVILKDGSFLTLQLPLSFLFSSANTLNGEWFHLQNPYDFTVRVPHFLFYVSPQFSVVFLEDGGLLGLKKVDGVHYEPLLFNDNSYLKSLTRFFSRSSKSDYDSVISCKLFHERYLIVLTQNCHLKIWDLTSFTLIQDYDMVSQSDSDPSHFRKVEAVGEYLSLYNNTLVTLLPLENGLFQMGTLLVDSSGILTYTFQNNIPTNLSASAIWSIVDLVLTRPLELNVEASYLNLIVLWKSGTASKLQILNVNDESFKNYEWIESVNKSLVDLQSEHDLDIVTKTGDVERGFCNLKSRYGTQIFERAQQILSENKIIMAHNEDEEYLANLETILRDVKTAFNEASSITLYGDEIILVNCFQPYNHSLYKLNTTVENWFYNMHSETDGSELFKYLRTLNGFASTLSNDVLRSISKKFLDIITGELPDSMTTVEKFTDIFKNCLENQFEITNLKILFDELNSFDIPVVLNDLINNQMKPGIFWKKDFISAIKFDGFTSIISLESLHQLLSIHYRITLQVLLTFVLFDLDTEIFGQHISTLLDLHYKQFLLLNLYRQDKCLLAEVLLKDSSEFSFGVKFFNYGQLIAYIDSLNSNVYNASITENSFFMTFFRSYIIENTSHKNIRFFLENVECPFYLRHNEVQE
soluble on expression in E. coli: soluble

MTKDILILAVETSCDETSVSVIKNGRDILSNTVLSQIESHKRFGGVVPEVASRHHVEGITATINEALGDADVSIEDIDAIAVTEGPGLIGALLIGVNAAKALAFAYDKPLIPVHHIAGHIYANHIEEPLTFPLIALIVSGGHTELVYMKDHLSFEVIGETRDDAVGEAYDKVARTIGLNYPGGPQVDRLAAEGEDTYSFPRVWLDKDSYDFSFSGLKSAVINQLHNQRQKNIPIIEANVATSFQNSVVEVLTFKAIQACKEYGVQRLIVAGGVASNKGLRQSLADQCKVNDIQLTIPSPKLCTDNAAMIGVAGHYLYQQGRFADLALNGHSNIDLEEYSAE
soluble on expression in E. coli: not soluble

MARLTAYERRKFRVRNRIKRTGRLRLSVFRSLKHIYAQIIDDEKGVTLVSASSLALKLKGNKTEVARQVGRALAEKALALGIKQVAFDRGPYKYHGRVKALAEGAREGGLEF
soluble on expression in E. coli: soluble

MSSNPLRFFVLTIFPHIISCYSEYGIVKQAIKKGKVEVYPIDLREFAPKGQVDDVPYGGLPGMVLKPEPIYEAYDYVVENYGKPFVLITEPWGEKLNQKLVNELSKKERIMIICGRYEGVDERVKKIVDMEISLGDFILSGGEIVALAVIDAVSRVLPGVLSEPQSIQEDSFQNRWLGYPVYTRPREYRGMKVPEELLSGHHKLIELWKLWHRIENTVKKRPDLIPKDLTELEKDILNSILSGKSFKEWLKEHKHLLLEHHHHHH
soluble on expression in E. coli: not soluble

MRKIVLLSQIVRPALSSARFVHTSTPLSWQKFENERHFEPGEDVMKRVWHGLSYDFRRWKRRFQEARKDAFKRRHPIAHMKHGTLDNEVFPYRAEIVIIGGGLSGSSTAFWLKERFRDEDFKVVVVENNDVFTKSSTMLSTGGITQQFSIPEFVDMSLFTTEFLRHAGEHLRILDSEQPDINFFPTGYLRLAKTDEEVEMMRSAWKVQIERGAKVQLLSKDELTKRYPYMNVDDVLLASLGVENEGTIDTWQLLSAIREKNITLGVQYVKGEVEGFQFERHRASSEVHAFGDDATADENKLRAQRISGVLVRPQMNDASARPIRAHLIVNAAGPWAGQVAKMAGIGKGTGLLAVPVPIQPRKRDVFVIFAPDVPSDLPFIIDPSTGVFCRQTDSGQTFLVGRTPSKEEDAKRDHSNLDVDYDDFYQKIWPVLVDRVPGFQTAKVKSAWSGYQDINTFDDAPVIGEHPLYTNLHMMCGFGERGVMHSMAAARAYAERIFDGAYINVNLRKFDMRRIVKMDPITEPCRL
soluble on expression in E. coli: not soluble

MISEGCEQCAKGGKMVLFVYGYCDQRDCFYCPLGENRKNVTQMYANERPIEDDADVIEEAKRMSALGTSITGGEPQEVLDRTCHYLELLKDEFGEDHHTHLYTGIPGGRENMRRLSEAGLDEIRFHPPLEQWGDLHGTEWEDILYIAREEGLTPAFEIPGIRAEEEFLEFLDEGAADFCNINEFEMSDGNYRRMQEEGFELKEDHMSAVEGSHDILEKMGDHEKVYFCTSVFKDAAQHRSRLKRMARNIRRPFDDVTDDGTLVYGKAWTSEARLETLGVPEEYYTVKSEHVELAWWLLEEMVEEGDVEKGEIVEQYPTYDGTVVERTPLSNGADAGRATADD
soluble on expression in E. coli: not soluble

METQEKKFVPASKQIPTVNSGWLDRELGEAMSEAVRACLAHGKQSEITVKLKIQPQNIQSGTVKISHDVATKLPKEKREGGIVFATPDGNIQADDPAQGKLKLKQVSNTSSTLKMVRSN
soluble on expression in E. coli: not soluble

MAITAQMVKELREKTGAGMMDCKKALTETNGDMEKAIDFLREKGIAKAAKKADRIAAEGLTFIETNGNDGLILELNSETDFVAKNEGFQTLIKELAAHLLANKPANVEEAMAQTMENGKKVEEHINEAIAKIGEKLTLRRFEIVSKTDADAFGAYLHMGGRIGVLTVLEGSTDEAAAKDVAMHIAAVNPKYIDRDAVTAEEVEHERQVLTQQALNEGKPEKIVAKMVEGRLGKFFEEICLLDQAFVKNPDMKVRQFVESKGGTLKGFVRYAVGEGIEKREDNFAEEVMNQVKGSN
soluble on expression in E. coli: not soluble

MGSDKIHHHHHHSEDINRNPLLPTKEDEKMDGVIYGAYLPNLEKSVIPIGTASESTEPVNRYQIGVNLAGDAWAGYMSPRDNKFNGSKNFTNYFMYENWVNYVYSFMVTDVYSPWMQIKRISQDEGTRNDEIYALAQIIKIAALHRTTDMFGPIPYSQVGKGSFKVAYDSQESVYRSFLKELEEAVQTLDDYSNKSKEVLPAFDIVYNGDVNKWMRFANSLMLRLAIRVRFADAGLAKEYAEKAVKHPAGLINSKELAAQMGKGAGLQMKNPLKVINEEYNDTRMGATIYSYLAGYNDARAAVYFVKNNGFKAVRCGIAKSGDAYNGFTRPNVHEDDPLYWMKASEVCFLKAEGALAGFDMGGSAGDFYNAGIRMSFSENGLDNSSAETYLKDSTRKPANYTDTSNGELSANAPSSITIRWENGATEEEKLERIITQKYLAIFPNGQEAWTEWRRTGYPRQIVVAENKTNSAVLIGNGYDLGGVRRLPYPRTEYEQNGENLHNAISQYLGGVDNAATKVWWDKKSK
soluble on expression in E. coli: not soluble

MAPENHDGEKHFAEIVKDFGETSMNDNGLDTGEQAKAFAWGKVRDALSQQVNQHVESWLSPWGNASVDVKVDNEGHFTGSRGSWFVPLQDNDRYLTWSQLGLTQQDNGLVSNVGVGQRWARGNWLVGYNTFYDNLQDENLQRAGFGAEAWGEYLRLSANFYQPFAAWHEQTATQEQRMARGYDLTARMRMPFYQHLNTSVSLEQYFGDRVDLFNSGTGYHNPVALSLGLNYTPVPLVTVTAQHKQGESGENQNNLGLNLNYRFGVPLKKQLSAGEVAESQSLRGSRYDNPQRNNLPTLEYRQRKTLTVFLATPPWDLKPGETVPLKLQIRSRYGIRQLIWQGDTQILSLTPGAQANSAEGWTLIMPDWQNGEGASNHWRLSVVVEDNQGQRVSSNEITLTLVEPFDALSNDELRWEP
soluble on expression in E. coli: not soluble

MLARLVLGTSGRAALGSVEPALGGLKSIWRCSQAFCSTPKGVTYRELKSLLNSKDIMLIDVRNTLEILEQGKIPGSINIPLDEVGEALQMNPVDFKEKYCQVKPSKSDRLVFSCLAGVRSKKAMDTAISLGFNSAQHYAGGWKEWVTYEISEEKQES
soluble on expression in E. coli: soluble

MGSDKIHHHHHHMSDTLRRKQAADHAMRHWVHQSRGPVPIGSDAHKQMFCNMLLDTHNPYKPAVIDWPALRPDALRRLTSLPIWDIAVQTEGRASVRVATFASTVRDPLLRAALELDAAEEARHKVVLSKLVQAYGIRLAPEPAYPAPKDAEWAWMVTGFSECIDSFFAFGLFRSAQRSGYFPPELVETFEPVIQEEGRHILFFANWFGWYWRNLSWWRRPWLFARVAAVWAYLIWERIGIARGIDADGVARDANFPANTAATVGNALNPRELIELCLVENARRMAGYDTRLLRPTIVPRLARFALRFIRK
soluble on expression in E. coli: not soluble
